From article PMC4733626 come the findings set out here.

This test addresses wild-type metallo-β-lactamase L1 (UniProt P52700). Kind of test: SEC. Background: Size exclusion chromatography separates by hydrodynamic size, large species first.

The term stoichiometry N denotes the number of molecules, sites or subunits per partner or assembly. In turn, “spin-labeled T163C/K286C mutant of metallo-β-lactamase L1 (enzyme)” came in with a stoichiometry N of 4.
